Source: publication PMC2739136

Experiments:
Assay in all cases: pull-down
MBP-TraR G153A, P33905 = target: T1, MBP-TraR G153A, P33905
T1 chain: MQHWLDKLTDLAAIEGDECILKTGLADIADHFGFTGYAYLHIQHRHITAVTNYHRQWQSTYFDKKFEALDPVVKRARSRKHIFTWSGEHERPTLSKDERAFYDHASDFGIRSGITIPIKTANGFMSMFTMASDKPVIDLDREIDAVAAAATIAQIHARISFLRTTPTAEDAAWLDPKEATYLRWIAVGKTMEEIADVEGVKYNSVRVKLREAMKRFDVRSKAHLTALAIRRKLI

MBP-TraR A149V, P33905 = target: T2, MBP-TraR A149V, P33905
T2 chain: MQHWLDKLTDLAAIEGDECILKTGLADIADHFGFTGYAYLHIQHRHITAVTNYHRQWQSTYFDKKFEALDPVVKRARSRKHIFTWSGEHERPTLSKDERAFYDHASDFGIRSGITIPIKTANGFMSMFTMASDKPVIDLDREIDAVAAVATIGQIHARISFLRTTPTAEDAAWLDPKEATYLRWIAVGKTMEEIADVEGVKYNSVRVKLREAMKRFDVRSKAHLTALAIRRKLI

MBP-TraR A157V, P33905 = target: T3, MBP-TraR A157V, P33905
T3 chain: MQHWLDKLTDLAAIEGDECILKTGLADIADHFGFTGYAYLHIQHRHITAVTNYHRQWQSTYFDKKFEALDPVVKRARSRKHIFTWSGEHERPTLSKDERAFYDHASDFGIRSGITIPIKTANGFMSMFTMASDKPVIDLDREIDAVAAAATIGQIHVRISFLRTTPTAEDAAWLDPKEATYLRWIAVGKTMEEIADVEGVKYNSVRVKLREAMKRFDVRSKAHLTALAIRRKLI

MBP-TraR F161A, P33905 = target: T4, MBP-TraR F161A, P33905
T4 chain: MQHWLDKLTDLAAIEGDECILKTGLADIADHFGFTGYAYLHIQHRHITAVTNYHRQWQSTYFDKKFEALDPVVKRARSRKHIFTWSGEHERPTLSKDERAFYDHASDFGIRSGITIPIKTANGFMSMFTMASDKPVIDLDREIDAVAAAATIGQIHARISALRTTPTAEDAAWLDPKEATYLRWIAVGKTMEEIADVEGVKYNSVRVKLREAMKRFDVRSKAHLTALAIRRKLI

MBP-TraR A222D, P33905 = target: T5, MBP-TraR A222D, P33905
T5 chain: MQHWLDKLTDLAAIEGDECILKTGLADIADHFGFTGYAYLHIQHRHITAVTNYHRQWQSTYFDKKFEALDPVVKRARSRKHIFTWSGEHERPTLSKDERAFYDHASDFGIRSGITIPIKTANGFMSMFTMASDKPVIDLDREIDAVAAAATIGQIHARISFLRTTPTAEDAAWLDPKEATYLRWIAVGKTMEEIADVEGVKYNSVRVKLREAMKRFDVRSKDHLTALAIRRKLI

MBP-TraR Q154E, P33905 = target: T6, MBP-TraR Q154E, P33905
T6 chain: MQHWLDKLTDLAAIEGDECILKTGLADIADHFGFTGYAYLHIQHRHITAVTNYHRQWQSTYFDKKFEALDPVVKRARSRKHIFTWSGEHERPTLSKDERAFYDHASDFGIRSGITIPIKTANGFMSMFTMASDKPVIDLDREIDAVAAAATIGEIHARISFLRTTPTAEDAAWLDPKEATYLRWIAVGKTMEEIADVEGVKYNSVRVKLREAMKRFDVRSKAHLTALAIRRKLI

MBP-TraR A150E, P33905 = target: T7, MBP-TraR A150E, P33905
T7 chain: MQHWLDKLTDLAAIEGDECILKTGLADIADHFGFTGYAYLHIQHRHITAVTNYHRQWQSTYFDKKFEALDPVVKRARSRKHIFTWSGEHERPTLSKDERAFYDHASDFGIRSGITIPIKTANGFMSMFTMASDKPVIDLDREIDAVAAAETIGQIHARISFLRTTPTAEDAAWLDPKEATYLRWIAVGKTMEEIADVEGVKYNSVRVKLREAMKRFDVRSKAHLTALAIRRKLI

MBP-TraR A150V, P33905 = target: T8, MBP-TraR A150V, P33905
T8 chain: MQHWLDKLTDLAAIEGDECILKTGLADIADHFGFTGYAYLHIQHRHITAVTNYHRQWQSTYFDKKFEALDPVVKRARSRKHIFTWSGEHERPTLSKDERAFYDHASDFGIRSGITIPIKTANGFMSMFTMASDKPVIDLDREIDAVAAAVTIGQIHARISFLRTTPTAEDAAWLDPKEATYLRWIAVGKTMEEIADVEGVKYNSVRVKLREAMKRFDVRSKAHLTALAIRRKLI

B1: native TraR (wild type) (protein)
chain: MQHWLDKLTDLAAIEGDECILKTGLADIADHFGFTGYAYLHIQHRHITAVTNYHRQWQSTYFDKKFEALDPVVKRARSRKHIFTWSGEHERPTLSKDERAFYDHASDFGIRSGITIPIKTANGFMSMFTMASDKPVIDLDREIDAVAAAATIGQIHARISFLRTTPTAEDAAWLDPKEATYLRWIAVGKTMEEIADVEGVKYNSVRVKLREAMKRFDVRSKAHLTALAIRRKLI
MBP-TraR G153A, P33905
  heterodimer formation (% of wild type) (% of wild type): 61
MBP-TraR A149V, P33905
  heterodimer formation (% of wild type) (% of wild type): 19
MBP-TraR A157V, P33905
  heterodimer formation (% of wild type) (% of wild type): 50
MBP-TraR F161A, P33905
  heterodimer formation (% of wild type) (% of wild type): 49
MBP-TraR A222D, P33905
  heterodimer formation (% of wild type) (% of wild type): 29
MBP-TraR Q154E, P33905
  heterodimer formation (% of wild type) (% of wild type): 25
MBP-TraR A150E, P33905
  heterodimer formation (% of wild type) (% of wild type): 14
MBP-TraR A150V, P33905
  heterodimer formation (% of wild type) (% of wild type): 15
